# Test results from article PMC11602157, “ZNF512B binds RBBP4 via a variant NuRD interaction motif and aggregates chromatin in a NuRD complex-independent manner” (Nucleic Acids Research, 2024).
# B1: ZNF512B: zinc finger protein 512B; GAL-ZNF512B in the reporter assay, GFP-/FLAG-tagged in pull-downs (protein)
# chain: MTDPFCVGGRRLPGSSKSGPGKDGSRKEVRLPMLHDPPKMGMPVVRGGQTVPGQAPLCFDPGSPASDKTEGKKKGRPKAENQALRDIPLSLMNDWKDEFKAHSRVKCPNSGCWLEFPSIYGLKYHYQRCQGGAISDRLAFPCPFCEAAFTSKTQLEKHRIWNHMDRPLPASKPGPISRPVTISRPVGVSKPIGVSKPVTIGKPVGVSKPIGISKPVSVGRPMPVTKAIPVTRPVPVTKPVTVSRPMPVTKAMPVTKPITVTKSVPVTKPVPVTKPITVTKLVTVTKPVPVTKPVTVSRPIVVSKPVTVSRPIAISRHTPPCKMVLLTRSENKAPRATGRNSGKKRAADSLDTCPIPPKQARPENGEYGPSSMGQSSAFQLSADTSSGSLSPGSRPSGGMEALKAAGPASPPEEDPERTKHRRKQKTPKKFTGEQPSISGTFGLKGLVKAEDKARVHRSKKQEGPGPEDARKKVPAAPITVSKEAPAPVAHPAPGGPEEQWQRAIHERGEAVCPTCNVVTRKTLVGLKKHMEVCQKLQDALKCQHCRKQFKSKAGLNYHTMAEHSAKPSDAEASEGGEQEERERLRKVLKQMGRLRCPQEGCGAAFSSLMGYQYHQRRCGKPPCEVDSPSFPCTHCGKTYRSKAGHDYHVRSEHTAPPPEEPTDKSPEAEDPLGVERTPSGRVRRTSAQVAVFHLQEIAEDELARDWTKRRMKDDLVPETARLNYTRPGLPTLNPQLLEAWKNEVKEKGHVNCPNDCCEAIYSSVSGLKAHLASCSKGAHLAGKYRCLLCPKEFSSESGVKYHILKTHAENWFRTSADPPPKHRSQDSLVPKKEKKKNLAGGKKRGRKPKERTPEEPVAKLPPRRDDWPPGCRDKGARGSTGRKVGVSKAPEK
# modifications: left off: GFP, end not stated, kept
# Columns and labels:
# [1] = tested on: 4xUAS-tk-luc reporter in HEK293T cells; experiment: Luciferase reporter assay; format: cell-based; conditions: GAL fusion, 72 h, three biological replicates
# Description: Per well of a 6-well plate, 1.5 × 10^5 HEK293T cells were seeded and transfected on the next day using 1 μg of 4xUAS-tk-luc reporter plasmid, 0.5 μg GAL expression vector and 0.5 μg pCMV-lacZ vector for normalization. Cells were directly lysed in well after 72 h with 200 μl Lysis buffer (25 mM Tris/Cl pH 7.5, 8 mM MgCl2, 1 mM EDTA, 1% Triton™ X-100, 15% glycerin, 1 mM DTT) for 15 min at RT. Supernatants were used to measure luciferase activity by mixing 100 μl 1:1 with 90 mg/L D-Luciferin/0.8 mM ATP and quantifying emitted light after 5 s incubation with an Orion L plate reader (Titertek-Berthold). Values were normalized to β-galactosidase activity by adding 5 μL supernatant to 900 μl LacZ buffer (50 mM Na2HPO4, 10 mM KCl, 0.1 mM MgSO4, pH 7) and 100 μl 4 g/L OPNG/0.1 M KPO4. When a color change of the mixture occurred, absorbance at 420 nm was measured.
# [2] = tested on: NuRD complex members; experiment: lf-qMS after GFP-Trap IP; format: binding; conditions: GFP-Trap IP vs GFP
# Description: Preparation of Micrococcal nuclease (MNase)-digested nuclear extracts was performed as previously described ([15–17],[32]). Briefly, nuclei were isolated by incubation with PBS containing 0.3% Triton™ X-100 for 10 min at 4°C and washed in PBS, before being resolved in 500 μl freshly prepared Ex100 buffer (10 mM HEPES pH 7.6, 100 mM NaCl, 1.5 mM MgCl2, 0.5 mM EGTA, 10% glycerol, 10 mM β-glycerol phosphate, 1 mM Dithiothreitol (DTT), 2 mM CaCl2). Chromatin was then digested with 1.5 U MNase (sufficient for 4 × 10^7 cells, Sigma-Aldrich) for 20 min at 26°C. Digestion was stopped by adding 10 mM EGTA and transferring the sample to 4°C. […]
# For label-free quantitative mass spectrometry (lf-qMS), precipitated proteins were eluted by incubation of beads with Elution Buffer (2 M urea, 50 mM Tris/Cl pH 7.5, 2 mM DTT, 20 μg/ml Trypsin Gold [Promega]) for 30 min at 37°C shaking at 1400 rpm in the dark. […]
# After tryptic digest (see MNase IP), peptides were desalted on StageTips ([36]) and analysed by nanoflow liquid chromatography on an EASY-nLC 1000 system (Thermo Fisher Scientific) coupled online to a Q Exactive Plus mass spectrometer (Thermo Fisher Scientific). […]
# The raw files were processed with MaxQuant ([37]) (version 1.6.5.0) against a human uniprot database (81194 entries). […] The match between run option and the LFQ quantitation were activated. […]
# [3] = tested on: FLAG-tagged ZNF512B; experiment: Oligomerization: GFP-Trap IP and FLAG immunoblot; format: binding; conditions: co-transfection of GFP- and FLAG-tagged ZNF512B constructs, HeLaK cells
# Description: Preparation of DNase-digested cell extracts and immunoprecipitation was performed using GFP-Trap® Magnetic Particles M-270 (Chromotek) following the manufacturer’s protocol. In brief, cells were incubated for 30 min on ice with RIPA buffer (10 mM Tris/Cl pH 7.5, 150 mM NaCl, 0.5 mM EDTA, 0.1% SDS, 1% Triton™ X-100, 1% deoxycholate) supplemented with DNase I (75 Kunitz U/ml, Thermo Fisher Scientific) and MgCl2 (2.5 mM). After centrifugation at 17 000 × g for 10 min at 4°C, lysate was transferred to a fresh tube and mixed with Dilution buffer (10 mM Tris/Cl pH 7.5, 150 mM NaCl, 0.5 mM EDTA). Lysate was then incubated with GFP-Trap® Magnetic Particles M-270 rotating for 1 h at 4°C. For peptide competition, lysate was incubated with peptide solution rotating for 1 h at 4°C before incubation with beads. After incubation, beads were washed three times with Wash buffer (10 mM Tris/Cl pH 7.5, 150 mM NaCl, 0.05% Nonidet™ P-40 Substitute, 0.5 mM EDTA), and precipitated proteins were eluted by boiling beads for 5 min in 2× SDS-sample buffer. Eluates were compared to input material via semi-dry western blotting. Details on applied antibodies and peptides are listed in the Supplementary Data.
molecule,measurement,setting,value
B1,repression of luciferase reporter,[1],strong repression effect
same,binding to NuRD complex members by lf-qMS,[2],NIM-dependent binding of ZNF512B to all known NuRD complex members was observed
same,oligomer formation,[3],able to form oligomers that are strictly dependent on the ZF domains
